Patent publication US20240317847A1 (Bayer, published 2024)
Changes are numbered by the printed parent chain.

T1: human IL-11 (human, UniProt P20809 22-199)
T1 sequence: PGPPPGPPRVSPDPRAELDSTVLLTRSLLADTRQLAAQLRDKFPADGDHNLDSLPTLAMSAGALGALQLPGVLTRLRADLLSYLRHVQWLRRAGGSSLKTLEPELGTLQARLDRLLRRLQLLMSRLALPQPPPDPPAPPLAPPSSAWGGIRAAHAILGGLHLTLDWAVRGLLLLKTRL

T2: murine IL-11 (mouse, UniProt P47873 22-199)
T2 sequence: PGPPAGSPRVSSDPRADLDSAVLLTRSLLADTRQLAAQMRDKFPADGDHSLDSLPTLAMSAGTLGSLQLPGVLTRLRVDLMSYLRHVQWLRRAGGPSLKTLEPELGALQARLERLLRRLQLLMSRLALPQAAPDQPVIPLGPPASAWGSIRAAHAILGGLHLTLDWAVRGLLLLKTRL

T3: cynomolgus IL-11 (cynomolgus, UniProt P20808 22-199)
T3 sequence: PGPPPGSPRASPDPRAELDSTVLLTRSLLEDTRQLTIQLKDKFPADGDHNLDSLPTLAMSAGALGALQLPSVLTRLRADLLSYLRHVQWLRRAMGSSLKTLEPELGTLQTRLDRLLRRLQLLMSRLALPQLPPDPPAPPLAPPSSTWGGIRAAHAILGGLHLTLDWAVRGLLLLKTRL

T4: rat IL-11 (rat, UniProt Q99MF5 22-199)
T4 sequence: T2 sequence with S50N, L84F, G94A, V137A, I138V

B1: TPP-18068 (antibody, mouse IgG1)
heavy: EVQLLESGGGLVQPGGSLRLSCAASGFTFSSYGMHWVRQAPGKGLEWVSVISYDGSYKYYADSVKGRFTISRDNSKNTLYLQMNSLRAEDTAVYYCAAGVPDYWGQGTLVTVSSAKTTPPSVYPLAPGSAAQTNSMVTLGCLVKGYFPEPVTVTWNSGSLSSGVHTFPAVLQSDLYTLSSSVTVPSSTWPSETVTCNVAHPASSTKVDKKIVPRDCGCKPCICTVPEVSSVFIFPPKPKDVLTITLTPKVTCVVVDISKDDPEVQFSWFVDDVEVHTAQTQPREEQFNSTFRSVSELPIMHQDWLNGKEFKCRVNSAAFPAPIEKTISKTKGRPKAPQVYTIPPPKEQMAKDKVSLTCMITDFFPEDITVEWQWNGQPAENYKNTQPIMDTDGSYFVYSKLNVQKSNWEAGNTFTCSVLHEGLHNHHTEKSLSHSPGK
light: QSVLTQPPSASGTPGQRVTISCTGSSSNIGAGYDVHWYQQLPGTAPKLLIYSNNERPSGVPDRFSGSKSGTSASLAISGLRSEDEADYYCAAWDDSLNGPVFGGGTKLTVLGQPKSSPSVTLFPPSSEELETNKATLVCTITDFYPGVVTVDWKVDGTPVTQGMETTQPSKQSNNKYMASSYLTLTARAWERHSSYSCQVTHEGHTVEKSLSRADCS
notes: mIgG1, Lambda
B2: TPP-29528 (antibody, mouse IgG1)
heavy: B1 heavy with S49A
light: B1 light with T23S, A31S, G32D, N54E, A91S, D95S, N98S
notes: mIgG1, Lambda
B3: TPP-29697 (bispecific antibody, IgG1)
chain 1: QVQLVESGGGVVQPGRSLRLSCAASGFTFSHYDMHWVRQAPGKGLEWVAVISYHGSVKFYADSVKGRFTISRDNSKNTLYLQMNSLRAEDTAVYYCARTPGFHFDYWGQGTLVTVSSGGGGSGGGGSGGGGSQSVLTQPPSASGTPGQRVTISCSGSSSNIGSNYVSWYQQLPGTAPKLLIYYDDLRPSGVPDRFSGSKSGTSASLAISGLRSEDEADYYCSAWDDSLSGVVFGGGTKLTVLGGGGSGGGGSGGGGSGVECPPCPAPPVAGPSVFLFPPKPKDTLMISRTPEVTCVVVGVSHEDPEVKFNWYVDGVEVHNAKTKPREEQYNSTYRVVSVLTVLHQDWLNGKEYKCKVSNKQLPSPIEKTISKAKGQPREPQVYTLPPCRDELTKNQVSLWCLVKGFYPSDIAVEWESNGQPENNYKTTPPVLDSDGSFFLYSKLTVDKSRWQQGNVFSCSVMHEALHNHYTQKSLSLSPGK
chain 2: EVQLLESGGGLVQPGGSLRLSCAASGFTFSSYGMHWVRQAPGKGLEWVAVISYDGSYKYYADSVKGRFTISRDNSKNTLYLQMNSLRAEDTAVYYCAAGVPDYWGQGTLVTVSSGGGGSGGGGSGGGGSQSVLTQPPSASGTPGQRVTISCSGSSSNIGSDYDVHWYQQLPGTAPKLLIYSNEERPSGVPDRFSGSKSGTSASLAISGLRSEDEADYYCSAWDSSLSGPVFGGGTKLTVLGGGGSGGGGSGGGGSGVECPPCPAPPVAGPSVFLFPPKPKDTLMISRTPEVTCVVVGVSHEDPEVKFNWYVDGVEVHNAKTKPREEQYNSTYRVVSVLTVLHQDWLNGKEYKCKVSNKQLPSPIEKTISKAKGQPREPQVCTLPPSRDELTKNQVSLSCAVKGFYPSDIAVEWESNGQPENNYKTTPPVLDSDGSFFLVSKLTVDKSRWQQGNVFSCSVMHEALHNHYTQKSLSLSPGK
notes: scFv-kih-hIgG1 with Fc-silencing mutations; bispecific comprising CDRs of TPP-29528 and TPP-29519
B4: TPP-18087 (antibody, mouse IgG1, V domains shown)
VH: EVQLLESGGGLVQPGGSLRLSCAASGFTFSHYDMNWLRQAPGKGLEWVGVISYDGSNKFYADFVKGRFTISRDNSKNTLYLQMNSLRAEDTAVYYCARTPGSHFDYWGQGTLVTVSS
VL: QSVLTQPPSASGTPGQRVTISCSGSSSNIGNNAVNWYQQLPGTAPKLLIYYDDLLPSGVPDRFSGSKSGTSASLAISGLRSEDEADYYCSAWDDSLNGVVFGGGTKLTVLG
notes: mIgG1, Lambda
B5: TPP-29603 (bispecific antibody, IgG1)
chain 1: QVQLVESGGGVVQPGRSLRLSCAASGFTFSHYDMHWVRQAPGKGLEWVAVISYHGSVKFYADSVKGRFTISRDNSKNTLYLQMNSLRAEDTAVYYCARTPGFHFDYWGQGTLVTVSSGGGGSGGGGSGGGGSQSVLTQPPSASGTPGQRVTISCSGSSSNIGSNYVSWYQQLPGTAPKLLIYYDDLRPSGVPDRFSGSKSGTSASLAISGLRSEDEADYYCSAWDDSLSGVVFGGGTKLTVLGGGGSGGGGSGGGGSGVECPPCPAPPVAGPSVFIFPPKPKDVLTITLTPKVTCVVVDISKDDPEVQFSWFVDDVEVHTAQTQPREEQFNSTFRSVSELPIMHQDWLNGKEFKCRVNSAAFPAPIEKTISKTKGRPKAPQVYTIPPCKEQMAKDKVSLWCMITDFFPEDITVEWQWNGQPAENYKNTQPIMDTDGSYFVYSKLNVQKSNWEAGNTFTCSVLHEGLHNHHTEKSLSHSPGK
chain 2: EVQLLESGGGLVQPGGSLRLSCAASGFTFSSYGMHWVRQAPGKGLEWVAVISYDGSYKYYADSVKGRFTISRDNSKNTLYLQMNSLRAEDTAVYYCAAGVPDYWGQGTLVTVSSGGGGSGGGGSGGGGSQSVLTQPPSASGTPGQRVTISCSGSSSNIGSDYDVHWYQQLPGTAPKLLIYSNEERPSGVPDRFSGSKSGTSASLAISGLRSEDEADYYCSAWDSSLSGPVFGGGTKLTVLGGGGSGGGGSGGGGSGVECPPCPAPPVAGPSVFIFPPKPKDVLTITLTPKVTCVVVDISKDDPEVQFSWFVDDVEVHTAQTQPREEQFNSTFRSVSELPIMHQDWLNGKEFKCRVNSAAFPAPIEKTISKTKGRPKAPQVCTIPPPKEQMAKDKVSLSCAITDFFPEDITVEWQWNGQPAENYKNTQPIMDTDGSYFVVSKLNVQKSNWEAGNTFTCSVLHEGLHNHHTEKSLSHSPGK
notes: scFv-kih-mIgG1; bispecific comprising CDRs of TPP-29528 and TPP-29519

biological target: T1, human IL-11; test: cell-based or functional assay

Binder | Efficacy (%), Stat3 reporter gene assay [%] | IC50, Stat3 reporter gene assay [nM]
B1 | 46.1 | 6.5
B2 | 81.2 | 
B3 | 99.1 | 2
B4 | 47.8 | 
B5 | 101 | 4.1

biological target: T2, murine IL-11; test: cell-based or functional assay

Binder | Efficacy (%), Stat3 reporter gene assay [%] | IC50, Stat3 reporter gene assay [nM]
B1 | 93.6 | 1.2
B2 | 96.9 | 0.89
B3 | 99.6 | 1.4
B4 | 59.4 | 16
B5 | 102 | 2

biological target: T3, cynomolgus IL-11; test: cell-based or functional assay

Binder | Efficacy (%), Stat3 reporter gene assay [%] | IC50, Stat3 reporter gene assay [nM]
B1 | 70 | 4.1
B2 | 87.8 | 0.44
B3 | 100 | 0.75
B4 | 47.7 | 
B5 | 101 | 1.7

biological target: T4, rat IL-11; test: cell-based or functional assay

Binder | Efficacy (%), Stat3 reporter gene assay [%] | IC50, Stat3 reporter gene assay [nM]
B1 | 94 | 1.8
B2 | 89.9 | 1.8
B3 | 97.6 | ~1.2
B4 | 31.8 | 
B5 | 99.9 | 2

biological target: T2, murine IL-11; test: SPR (Biacore), 37 C, antibody captured via anti-Fc, IL-11 as analyte
Experimental: To assess the binding kinetics and affinity of anti-IL-11 bispecific antibodies as well as their species cross-reactivity profile, binding assays were conducted using surface plasmon resonance (SPR). […] Antibodies were captured either via anti-human Fc IgGs (“Human antibody capture kit”, Order No. BR100839, Cytiva) or via anti-mouse Fc IgGs (“Mouse antibody capture kit, Order No. BR100383, Cytiva) covalently amine coupled to a Series S CM5 sensor chip (Cytiva) depending on the isotype. The amine coupling was carried out according to the manufacturer's instructions using 1-ethyl-3-(3-dimethylaminopropyl) carbodiimide hydrochloride (EDC), N-hydroxysuccinimide (NHS) and ethanolamine HCl, pH 8.5 (“Amine Coupling Kit” BR-1000-50, Cytiva.). Human, mouse, cynomolgus or rat IL-11 was used as analyte at several dilutions within the concentration range from 0.05-200 nM. For binding assays with only one concentration 200 nM IL-11 was used. The sensor surface was regenerated with glycine pH 1.7 after each antigen injection. Obtained sensorgrams were double referenced (subtraction of reference flow cell signal and buffer injection) and were fitted to a 1:1 Langmuir binding model to derive kinetic data using the Biacore T200 Evaluation software or the Biacore Insight software.
If no value is reported, there was either no binding or very low binding and multiphasic binding behavior.

Binder | Kd [nM]
B1 | 0.41
B2 | 0.23
B3 | < 0.001
B4 | 41
B5 | 0.0017

biological target: T2, murine IL-11; test: Tri-complex ELISA, mIL-11 + mIL-11Ra-Fc + mgp130-Fc, inhibition of complex formation
Experimental: In a first step, 25 μl of goat anti human IgG (Sigma, #12136), diluted 1:1000 in coating buffer (Candor, #121125) was coated on the plate at 4° C. overnight. Next day, the plate was washed one time with 50 μl PBST and then blocked with 50 μl SmartBlock (Candor, #113125) for one hour at room temperature (RT). […] After three additional washes of the coated and blocked microtiter plate with PBS-T, 25 μl of each mixture were added and the assay plate was incubated for one hour at room temperature. After three additional washes, anti-mouse-gp130 biotinylated antibody (R&D, #BAF468) or anti-human gp130 biotinylated antibody (R&D, #BAF228), both 1:1000 in 10% SmartBlock PBS-T, was added and incubated for 1 hour at RT. After three additional washes, a Streptavidin-Peroxidase conjugate (Sigma, #S5512) 1:1000 in SmartBlock PBS-T was added and incubated for one hour at room temperature. After a final three washes, AmplexRed (Fisher Scientific, A12222), 1/1000 in PBS, 0,003% H₂O₂, was added as substrate and incubated for 15 min at RT in the dark. Then, the fluorescence was measured with a plate reader at 535/595 nm. Signals from dose responses were used to calculate IC50 values using GraphPad Prism software. Efficacy was calculated as [(signal measured at lowest antibody concentration−signal measured at the highest antibody concentration)×100] divided by (signal measured at lowest antibody concentration−signal measured in the absence of antibody at an IL11 concentration of 8.2E-11 [M]).
IgG converted antibodies were subjected to the experimental assay procedure described in Example 19 and IC50 [M], respectively efficacy (%) were calculated accordingly.

Binder | Efficacy (%) | IC50 [nM]
B1 | 84.9 | 3.9
B2 | 94.7 | 0.6
B4 |  | 33
